From publication PMC10397247 come the findings set out here.

The target in one assay is T1, APC9319-AA.
T1 chain: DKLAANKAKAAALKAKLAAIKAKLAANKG
The experiment in a line: two-hybrid library CCmax.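 Also: natural log of median RNA to DNA barcode read ratio; higher means stronger binding.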 The note with it: mean of both orientations.

The target in the next assay is T2, APC6108-AA.
T2 chain: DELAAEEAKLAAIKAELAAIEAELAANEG
The assay can be described thus: two-hybrid library CCmax.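 Also: natural log of median RNA to DNA barcode read ratio; higher means stronger binding.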 As to conditions: mean of both orientations.

For a further assay, the target named is T3, APC8910-AA.
T3 chain: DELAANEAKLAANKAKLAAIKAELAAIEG
The assay can be described thus: two-hybrid library CCmax.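 Also: natural log of median RNA to DNA barcode read ratio; higher means stronger binding.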 The note with it: mean of both orientations.

In the next assay the target is T4, APC1434-AA.
T4 chain: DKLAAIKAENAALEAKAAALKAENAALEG
The assay can be described thus: two-hybrid library CCmax.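 Also: natural log of median RNA to DNA barcode read ratio; higher means stronger binding.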

In another assay the target is T5, APC2237-AA.
T5 chain: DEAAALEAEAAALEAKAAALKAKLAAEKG
The experiment in a line: two-hybrid library CCmax.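 Also: natural log of median RNA to DNA barcode read ratio; higher means stronger binding.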 As to conditions: mean of both orientations.

The target in the next assay is T6, APC4011-AA.
T6 chain: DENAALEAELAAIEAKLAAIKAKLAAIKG
The assay can be described thus: two-hybrid library CCmax.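 Also: natural log of median RNA to DNA barcode read ratio; higher means stronger binding.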 The note with it: mean of both orientations.

For the next assay, the target named is T7, APC4436-AA.
T7 chain: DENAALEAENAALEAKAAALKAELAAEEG
The experiment in a line: two-hybrid library CCmax. The note with it: mean of both orientations.

A further assay deals with T8, APC8191-AA.
T8 chain: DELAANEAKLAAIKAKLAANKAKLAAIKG
The assay can be described thus: two-hybrid library CCmax. The note with it: mean of both orientations.

The next assay deals with T9, APC2405-AA.
T9 chain: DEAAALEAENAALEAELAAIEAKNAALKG
The assay can be described thus: two-hybrid library CCmax. As to conditions: mean of both orientations.

The next assay deals with T10, APC5383-AA.
T10 chain: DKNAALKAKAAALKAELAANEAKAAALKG
The experiment in a line: two-hybrid library CCmax. As to conditions: mean of both orientations.

The next assay has as its target T11, APC9096-AA.
T11 chain: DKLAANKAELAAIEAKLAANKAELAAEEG
The experiment in a line: two-hybrid library CCmax. As to conditions: mean of both orientations.

The target of another assay is T12, APC7099-AA.
T12 chain: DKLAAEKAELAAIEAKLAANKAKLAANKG
The experiment in a line: two-hybrid library CCmax. As to conditions: mean of both orientations.

The target in the next assay is T13, APC3645-AA.
T13 chain: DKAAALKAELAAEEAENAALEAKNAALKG
The assay can be described thus: two-hybrid library CCmax. The note with it: mean of both orientations.

In another assay the target is T14, APC232-AA.
T14 chain: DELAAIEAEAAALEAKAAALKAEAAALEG
The experiment in a line: two-hybrid library CCmax. As to conditions: mean of both orientations.

In the next assay the target is T15, APC4264-AA.
T15 chain: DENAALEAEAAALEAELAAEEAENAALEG
The experiment in a line: two-hybrid library CCmax. As to conditions: mean of both orientations.

The target of another assay is T16, 4H3427-bN.
T16 chain: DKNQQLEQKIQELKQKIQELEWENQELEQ
The assay can be described thus: two-hybrid library CCNG1.

A further assay concerns the target T17, 4H967-bN.
T17 chain: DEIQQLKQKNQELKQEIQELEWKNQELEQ
The assay can be described thus: two-hybrid library CCNG1.

The next assay has as its target T18, 4H3606-bN.
T18 chain: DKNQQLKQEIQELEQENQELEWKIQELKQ
The assay can be described thus: two-hybrid library CCNG1.

The target in another assay is T19, 4H454-bN.
T19 chain: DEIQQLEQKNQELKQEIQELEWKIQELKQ
The assay can be described thus: two-hybrid library CCNG1.

The target in a further assay is T20, 4H568-bN.
T20 chain: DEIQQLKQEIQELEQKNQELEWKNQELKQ
The experiment in a line: two-hybrid library CCNG1.

The target of the next assay is T21, 4H953-bN.
T21 chain: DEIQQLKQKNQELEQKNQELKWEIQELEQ
The experiment in a line: two-hybrid library CCNG1.

The next assay concerns the target T22, 4H3782-bN.
T22 chain: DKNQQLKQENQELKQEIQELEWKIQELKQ
The assay can be described thus: two-hybrid library CCNG1.

In the next assay the target is T23, 4H754-bN.
T23 chain: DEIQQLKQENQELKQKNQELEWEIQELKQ
The experiment in a line: two-hybrid library CCNG1.

Another assay has as its target T24, 4H3354-bN.
T24 chain: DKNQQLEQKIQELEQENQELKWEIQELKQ
The assay can be described thus: two-hybrid library CCNG1.

The target of another assay is T25, 4H3855-bN.
T25 chain: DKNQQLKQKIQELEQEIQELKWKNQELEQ
The experiment in a line: two-hybrid library CCNG1.

The next assay concerns the target T26, 4H687-bN.
T26 chain: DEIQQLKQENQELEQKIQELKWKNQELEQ
The assay can be described thus: two-hybrid library CCNG1.

The next assay concerns the target T27, 4H4001-bN.
T27 chain: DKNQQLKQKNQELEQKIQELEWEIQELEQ
The experiment in a line: two-hybrid library CCNG1.

The target in another assay is T28, 4H883-bN.
T28 chain: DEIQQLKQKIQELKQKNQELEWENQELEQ
The experiment in a line: two-hybrid library CCNG1.

For another assay, the target named is T29, 4H72-bN.
T29 chain: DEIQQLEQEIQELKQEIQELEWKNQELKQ
The experiment in a line: two-hybrid library CCNG1.

For another assay, the target named is T30, 4H3843-bN.
T30 chain: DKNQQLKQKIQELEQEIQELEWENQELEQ
The experiment in a line: two-hybrid library CCNG1.

A further assay deals with T31, 4H918-bN.
T31 chain: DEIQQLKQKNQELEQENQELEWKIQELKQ
The assay can be described thus: two-hybrid library CCNG1.

The target of another assay is T32, 4H717-bN.
T32 chain: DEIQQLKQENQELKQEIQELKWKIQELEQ
The assay can be described thus: two-hybrid library CCNG1.

The target of the next assay is T33, 4H908-bN.
T33 chain: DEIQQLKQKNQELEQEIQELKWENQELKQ
The assay can be described thus: two-hybrid library CCNG1.

The next assay addresses T34, 4H797-bN.
T34 chain: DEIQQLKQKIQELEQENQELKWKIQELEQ
The assay can be described thus: two-hybrid library CCNG1.

The next assay concerns the target T35, 4H607-bN.
T35 chain: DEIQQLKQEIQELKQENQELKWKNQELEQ
The experiment in a line: two-hybrid library CCNG1.

In a further assay the target is T36, 4H338-bN.
T36 chain: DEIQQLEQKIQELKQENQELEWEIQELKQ
The assay can be described thus: two-hybrid library CCNG1.

The target of the next assay is T37, 4H462-bN.
T37 chain: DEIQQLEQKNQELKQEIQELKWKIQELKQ
The assay can be described thus: two-hybrid library CCNG1.

The target of a further assay is T38, 4H331-bN.
T38 chain: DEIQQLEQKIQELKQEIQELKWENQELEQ
The experiment in a line: two-hybrid library CCNG1.

Another assay has as its target T39, 4H370-bN.
T39 chain: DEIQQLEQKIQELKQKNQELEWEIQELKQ
The assay can be described thus: two-hybrid library CCNG1.

The target of a further assay is T40, 4H346-bA.
T40 chain: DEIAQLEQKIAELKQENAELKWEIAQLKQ
The assay can be described thus: two-hybrid library CCNG1.

Another assay addresses T41, 4H4073-bA.
T41 chain: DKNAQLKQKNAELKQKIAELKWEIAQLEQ
The experiment in a line: two-hybrid library CCNG1.

The target of the next assay is T42, 4H683-bA.
T42 chain: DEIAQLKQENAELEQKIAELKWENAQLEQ
The experiment in a line: two-hybrid library CCNG1.

In the next assay the target is T43, 4H575-bA.
T43 chain: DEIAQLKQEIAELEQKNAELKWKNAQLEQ
The experiment in a line: two-hybrid library CCNG1.

In another assay the target is T44, 4H3427-bA.
T44 chain: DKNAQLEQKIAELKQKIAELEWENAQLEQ
The experiment in a line: two-hybrid library CCNG1.

For a further assay, the target named is T45, 4H3010-bA.
T45 chain: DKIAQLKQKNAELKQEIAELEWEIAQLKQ
The experiment in a line: two-hybrid library CCNG1.

The target in the next assay is T46, 4H3926-bA.
T46 chain: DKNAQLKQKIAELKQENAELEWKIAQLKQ
The assay can be described thus: two-hybrid library CCNG1.

Another assay has as its target T47, 4H855-bA.
T47 chain: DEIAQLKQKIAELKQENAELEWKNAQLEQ
The experiment in a line: two-hybrid library CCNG1.

The next assay has as its target T48, 4H457-bA.
T48 chain: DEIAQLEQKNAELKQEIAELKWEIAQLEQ
The experiment in a line: two-hybrid library CCNG1.

The target in a further assay is T49, 4H797-bA.
T49 chain: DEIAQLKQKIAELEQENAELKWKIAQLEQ
The assay can be described thus: two-hybrid library CCNG1.

A further assay has as its target T50, 4H3112-bA.
T50 chain: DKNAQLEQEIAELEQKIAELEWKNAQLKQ
The assay can be described thus: two-hybrid library CCNG1.

Another assay addresses T51, 4H968-bA.
T51 chain: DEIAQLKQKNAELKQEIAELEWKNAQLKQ
The experiment in a line: two-hybrid library CCNG1.

Another assay has as its target T52, 4H918-bA.
T52 chain: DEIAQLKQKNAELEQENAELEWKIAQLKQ
The assay can be described thus: two-hybrid library CCNG1.

The target of the next assay is T53, 4H754-bA.
T53 chain: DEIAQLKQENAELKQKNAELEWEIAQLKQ
The experiment in a line: two-hybrid library CCNG1.

The target in the next assay is T54, 4H953-bA.
T54 chain: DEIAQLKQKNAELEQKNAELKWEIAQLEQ
The experiment in a line: two-hybrid library CCNG1.

Another assay deals with T55, 4H780-bA.
T55 chain: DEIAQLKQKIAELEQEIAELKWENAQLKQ
The assay can be described thus: two-hybrid library CCNG1.

Consider DKLAAIKAENAALEAKAAALKAENAALEG [APC1434-AA], for which the interaction score in the assay with APC9319-AA was -1.75; in the assay with APC6108-AA, -1.79; in the assay with APC8910-AA, -1.81; with APC1434-AA, -1.78; with APC2237-AA, -1.66; with APC4011-AA, -1.72. The interaction score was -1.61 in the assay with APC4436-AA; -1.74 with APC8191-AA; -1.36 in the assay with APC2405-AA; -1.97 with APC5383-AA; -1.36 with APC9096-AA; -1.28 with APC7099-AA. In addition, the figures for the interaction score with APC3645-AA, with APC232-AA and with APC4264-AA were -1.31, -1.48 and -1.64, respectively.
Turning to DEIQQLEQKIQELKQEIQELKWENQELEQ [4H331-bN], the interaction score in the assay with 4H3427-bN was 1.12; in the assay with 4H967-bN, -0.995; in the assay with 4H3606-bN, -0.132; with 4H454-bN it was -0.999; with 4H568-bN it was -1.41; with 4H953-bN, -0.578. Moreover, the interaction score with 4H3782-bN is -0.492; in the assay with 4H754-bN, -0.762; with 4H3354-bN, -0.055; with 4H3855-bN, 1.17; with 4H687-bN, -0.624; with 4H4001-bN it was 0.329. In addition, the interaction score was -0.0918 with 4H883-bN; 0.918 in the assay with 4H72-bN; -0.476 with 4H3843-bN; -0.476 in the assay with 4H918-bN; -0.661 with 4H717-bN; -1.35 with 4H908-bN. The interaction score is -0.866 with 4H797-bN; -2.2 with 4H607-bN; -0.434 with 4H338-bN; -0.381 in the assay with 4H462-bN; -0.214 in the assay with 4H331-bN; 0.508 in the assay with 4H370-bN.
For the molecule DKIAQLKQKNAELKQEIAELEWEIAQLKQ [4H3010-bA], the interaction score was -0.9 in the assay with 4H346-bA; 0.722 with 4H4073-bA; 0.693 in the assay with 4H683-bA; -0.532 with 4H575-bA; 0.296 in the assay with 4H3427-bA; 0.824 with 4H3010-bA. Further, the interaction score with 4H3926-bA was 1.35; in the assay with 4H855-bA, -1.32; with 4H457-bA it was 1.48; with 4H797-bA it was -0.928; in the assay with 4H3112-bA, -0.267; with 4H968-bA it was -0.854. The interaction score with 4H918-bA is -0.579; with 4H754-bA, -0.693; in the assay with 4H953-bA, 0.368; with 4H780-bA, -1.79.
